Reference: patent US9850293B2, “Targeting trastuzumab-resistant HER2+ breast cancer with a HER3-targeting nanoparticle” (priority 2014, dated 2017)
“Also recorded” adds a separate entry of the source.

Legend:
[1] = HerDox stability in serum-containing media; format: in vitro ADME; settings: 10% fetal bovine serum media, 37° C.
Experimental: FIG. 6 (B) mimics extended exposure of HerDox to cells in culture medium. HerDox immobilized on Ni-NTA beads were incubated with bovine serum in DMEM for the indicated times at 37° C. before each sample was pelleted. […] Relative Dox release or retention in serum is expressed as normalized to control (corresponding sample lacking serum). N=3 per time point.
(§1) The inventors tested the stability of HerDox over 12 days under different storage temperatures: 40° C., room temperature, or 37° C. […] The inventors also examined HerDox stability in serum-containing media at 37° C. […] Dox retention in the conjugate was also assessed by eluting the conjugate from the beads at each time point.

T47D = test: Cytotoxicity on cell lines (HerDox dose curves); format: cell-based, human; settings: concentration yielding 50% reduction in cell survival, mean ± SD
[2] = Stability in mouse whole blood; format: in vitro ADME; settings: 0.12 mg/mL Dox, 37° C., up to one hour
Experimental: FIG. 13 illustrates stability in mouse whole blood. […] As 0.5 mM EDTA was used as an anticoagulant, HerDox in EDTA alone (− blood) was processed in parallel. Bars represent fluorescence of retained (retentates) or released (filtrates) Dox as a percentage of the total fluorescence of each sample. Scale of Y-axis is adjusted to show presence of filtrate samples. N=3 per treatment.
(A) depicts a graphic of HerDox formed by non-covalent, serum-stable self-assembly, showing HerPBK10 with functional domains delineated, and electrophilic binding with Dox-intercalated ds-oligo. (B) depicts a CryoEM image of HerDox particles. (C) is a HPLC chromatogram of HerDox showing elution profile of Dox absorbance. […] (D) illustrates the protection of ds-oligo from serum nuclease digestion by HerPBK10. The ds-oligo was incubated for 20 min in 100% mouse serum (Abcam, Cambridge, Mass., USA) before PAGE and EtBr staining to visualize the DNA. (E) illustrates that HerDox remains stable in blood. […] N=3. *, p<0.05, compared to respective retentates.
As the anticoagulant, 0.5 mM EDTA, was present in the blood collection, parallel samples were incubated at 37° C. in EDTA alone. Samples representing input HerDox (before incubation in blood) were incubated at 37° C. in HEPES-buffered saline.

U251 human glioma cells = test: Toxicity to glioma cells (cell count); format: cell-based; settings: four days
Experimental: Significant differences were determined by 2-tailed tests.
Cells were trypsinized and counted on the last day.

MDA-MB-435 cells = test: Intracellular translocation of HerDox and Dox (microscopy); format: cell-based, human
Experimental: Live (unfixed) cells were imaged by brightfield and fluorescence microscopy.
Live (unfixed) cells were imaged by DIC and confocal fluorescence microscopy.
FIG. 15 illustrates HerDox trafficking in breast cancer cells. Cells incubated with HerDox at 37° C. were fixed at the indicated time points and processed for immunofluorescence using an antibody against HerPBK10. Images were captured using confocal microscopy under fluorescence and brightfield. n, nucleus; Bar, ˜8 microns.

[3] = system: BT474 trastuzumab-resistant cells; test: Tumor cell killing in culture
Experimental: FIG. 21 depicts graph that show the results of the administration of HerDox on various cells. […] N=3. *=p<0.05 compared to parental. […] N=3.
N=3. *, p<0.05 compared to parental. […] N=3. […] Parental and resistant cell lines were treated with HerDox−/+HER3 blocking peptide (ErbB3 human; Prospec), and tested for cell survival 48 hours later. […] Treatments were compared to mock (saline)-treatment. […] N=3. *, p<0.05 compared to parental. […] N=3.
Parental cell lines were pre-treated with 0.5 mg/mL Tz for 24 hours before testing these cells for surface HER3 levels. […] Parental cell lines were pre-treated with 0.5 mg/mL Tz for 24 hours before testing these cells for HerPBK10 binding. […] SKBR3 Parental cells were treated with Tz at indicated concentrations (see upper X-axes) 4 and 24 hours before HerDox treatment and assayed for survival at 48-72 h after treatment. N=3. […] SK-474 Parental cells were treated with Tz at indicated concentrations (see upper X-axes) 4 and 24 hours before HerDox treatment and assayed for survival at 48-72 h after treatment. N=3. […] MDA-MB-435 non-resistant cells were treated with Tz at indicated concentrations (see upper X-axes) 4 and 24 hours before HerDox treatment and assayed for survival at 48-72 h after treatment. […] N=3. […] Tz-resistant cells were treated with Tz at indicated concentrations (see upper X-axes) 4 and 24 hours before HerDox treatment and assayed for survival at 48-72 h after treatment. N=3.
N=3. *, p<0.05 compared to parental. […] N=3. […] N=3. […] Tumor volumes were measured by calipers. […] Tumor volumes were measured by calipers. […]

[4] = HerDox stability under storage conditions; format: physicochemical; settings: up to 12 days
Experimental: FIG. 6 (A) illustrates conjugate stability under different storage conditions, or in serum. HerDox was incubated up to 12 days at 4° C., Room Temperature, or 37° C. Samples were filtered through ultrafiltration spin columns every other day.
as §1

SKOV3 = test: Cytotoxicity on cell lines (HerDox dose curves); format: cell-based, human; settings: concentration yielding 50% reduction in cell survival, mean ± SD

B1: HerDox: non-covalent complex of HerPBK10, double-stranded oligonucleotide and intercalated Dox (Unit A+Unit B+Unit C) (conjugate)
chain: SHLVKCAEKEKTFCVNGGECFMVKDLSNPSRYLCKCQPGFTGARCTENVPMKVQNQEKAEELYQKMRRAAMYEEGPPPSYESVVSAAPVAAALGSPFDAPLDPPFVPPRYLRPTGGRNSIRYSELAPLFDTTRVYLVDNKSTDVASLNYQNDHSNFLTTVIQNNDYSPGEASTQTINLDDRSHWGGDLKTILHTNMPNVNEFMFTNKFKARVMVSRLPTKDNQVELKYEWVEFTLPEGNYSETMTIDLMNNAIVEHYLKVGRQNGVLESDIGVKFDTRNFRLGFDPVTGLVMPGVYTNEAFHPDIILLPGCGVDFTHSRLSNLLGIRKRQPFQEGFRITYDDLEGGNIPALLDVDAYQASLKDDTEQGGGGAGGSNSSGSGAEENSNAAAAAMQPVEDMNDHAIRGDTFATRAEEKRAEAEAAAEAAAPAAQPEVEKPQKKPVIKPLTEDSKKRSYNLISNDSTFTQYRSWYLAYNYGDPQTGIRSWTLLCTPDVTCGSEQVYWSLPDMMQDPVTFRSTRQISNFPVVGAELLPVHSKSFYNDQAVYSQLIRQFTSLTHVFNRFPENQILARPPAPTITTVSENVPALTDHGTLPLRNSIGGVQRVTITDARRRTCPYVYKALGIVSPRVLSSRTFKKKKKKKKKK
modifications: left off: small tags and cut ends
- Dox release from conjugate in serum [1]: no significant release of Dox
- Dox retention by conjugate in serum ([1]; each time point): completely retained
- EC50 (T47D): 0.64 ± 0.04 µM
- loss of Dox from conjugate in whole blood [2]: no detectable loss of Dox from the conjugate
- toxicity relative to the equivalent concentration of Dox (U251 human glioma cells; 0.5 μM or 1 μM): 8-10 times
- factor less HerDox eliciting the same toxicity as Dox (U251 human glioma cells): 10 ×
- intracellular location of Dox fluorescence (MDA-MB-435 cells; 0 min of uptake, 0.5 μM): mostly at the cell periphery
- localization of HerPBK10 and Dox (immunofluorescence) (MDA-MB-435 cells; 30 and 60 min): increasing levels of Dox accumulate in the nucleus while the majority of HerPBK10 remains in the cytoplasm
- colocalization of HerPBK10 and Dox (immunofluorescence) (MDA-MB-435 cells; 15 min of uptake): HerPBK10 mostly colocalizes with Dox
- intracellular location of Dox fluorescence (MDA-MB-435 cells; 60 min): accumulated in the nucleus
- intranuclear pattern of Dox in live cells (MDA-MB-435 cells; confocal, live cells): preferentially accumulates in nucleolar structures
- effect on BT474 resistant cells ([3]; 48-72 h after treatment): completely killed off; also recorded: complete cell death at all HerDox concentrations tested; also recorded: effectively eliminated
- cytotoxicity at five-fold lower HerDox concentrations with trastuzumab pre-treatment ([3]; Tz-resistant BT474): further enhanced cytotoxicity
- effect on cell survival at five-fold lower HerDox concentrations ([3]; Tz-resistant BT474): still had a potent effect on cell survival
- product remaining intact ([4]; 4° C.): 100%
- effect of storage on drug incorporation ([4]; room temperature and 37° C.): appeared to enhance the incorporation of the drug
- EC50 (SKOV3): 0.18 ± 0.03 µM
